# In the Immune Epitope Database (IEDB):
# Columns and labels:
# HLA-A*02:01 = test: IEDB peptide-MHC binding, purified MHC/competitive/radioactivity; filed as Kd, often an IC50 or EC50 that approximates it; ≥ and ≤ were set here for values at or beyond the usual limits of such assays
# HLA-A*11:01 = test: as above
# [1] = source organism: Mammarenavirus choriomeningitidis
# [2] = source organism: Mammarenavirus brazilense
sequence,measurement,setting,value
AQPGLLSYV,Kd,HLA-A*02:01; source organism: Mammarenavirus guanaritoense,161 nM
FTNDSIISH,Kd,HLA-A*11:01; [1],38 nM
GLSQFTQTV,Kd,HLA-A*02:01; source organism: Mammarenavirus juninense,30 nM
KCLNIMLGK,Kd,HLA-A*11:01; [2],678 nM
LVSFLLLAGR,Kd,HLA-A*11:01; [1],70 nM
LVTFLLLCGR,Kd,HLA-A*11:01; source organism: Mammarenavirus lassaense,≥ 5000 nM
SIQKNTIFK,Kd,HLA-A*11:01; source organism: Mammarenavirus machupoense,5.5 nM
SSIIRSLPK,Kd,HLA-A*11:01; source organism: Mammarenavirus whitewaterense,2.5 nM
SSQRDTILK,Kd,HLA-A*11:01; [2],9.3 nM
STYYVHENK,Kd,HLA-A*11:01; [2],6 nM
TTYLGPLSCK,Kd,HLA-A*11:01; [1],2.8 nM
